According to FireProtDB (doi:10.1021/bi00435a062):

B1: Tissue-type plasminogen activator, P00750 (parent)
chain: MDAMKRGLCCVLLLCGAVFVSPSQEIHARFRRGARSYQVICRDEKTQMIYQQHQSWLRPVLRSNRVEYCWCNSGRAQCHSVPVKSCSEPRCFNGGTCQQALYFSDFVCQCPEGFAGKCCEIDTRATCYEDQGISYRGTWSTAESGAECTNWNSSALAQKPYSGRRPDAIRLGLGNHNYCRNPDRDSKPWCYVFKAGKYSSEFCSTPACSEGNSDCYFGNGSAYRGTHSLTESGASCLPWNSMILIGKVYTAQNPSAQALGLGKHNYCRNPDGDAKPWCHVLKNRRLTWEYCDVPSCSTCGLRQYSQPQFRIKGGLFADIASHPWQAAIFAKHRRSPGERFLCGGILISSCWILSAAHCFQERFPPHHLTVILGRTYRVVPGEEEQKFEVEKYIVHKEFDDDTYDNDIALLQLKSDSSRCAQESSVVRTVCLPPADLQLPDWTECELSGYGKHEALSPFYSERLKEAHVRLYPSSRCTSQHLLNRTVTDNMLCAGDTRSGGPQANLHDACQGDSGGPLVCLNDGRMTLVGIISWGLGCGQKDVPGVYTKVTNYLDWIRDNMRP

Variants of: B1
Details: Homo sapiens, pH 4.5, Thermal, DSC, reversible: yes, structure 1TPK, whole UniProt chain shown
[1] = 64.3 °C, Citric acid trisodium citrate 0.1 M 0.1 M
[2] = Citric acid/trisodium citrate 0.1 M/0.1 M/

With V280I the “ddG of mutation (higher = less stable)” value [1] was -0.3 kcal/mol, the “heat capacity change of unfolding” value [1] was 0.9 kcal/mol/K and the “unfolding enthalpy (calorimetric)” value [1] was 67.5 kcal/mol. For the same variant, the Tm [2] was 64.8 °C, the “change of melting temperature, mutant - wild type (higher = more stable)” value (shortened to “change of melting temperature, mutant”) [2] was 0.5 °C and the “unfolding enthalpy (calorimetric)” value [2] was 67.5 kcal/mol.

With V280M the “ddG of mutation (higher = less stable)” value [1] was 2.2 kcal/mol, the Tm [2] was 54.4 °C and the “change of melting temperature, mutant” value [2] was -9.9 °C. The “unfolding enthalpy (calorimetric)” value [2] was 67.8 kcal/mol.

For V280A, the Tm [2] was 55.5 °C, the “change of melting temperature, mutant” value [2] was -8.8 °C and the “unfolding enthalpy (calorimetric)” value [2] was 72.5 kcal/mol.

With V280S the “ddG of mutation (higher = less stable)” value [1] was 2.4 kcal/mol, the “heat capacity change of unfolding” value [1] was 0.9 kcal/mol/K and the Tm [2] was 52.9 °C. For the same variant, the “change of melting temperature, mutant” value [2] was -11.4 °C and the “unfolding enthalpy (calorimetric)” value [2] was 63.4 kcal/mol.

With V280L the “ddG of mutation (higher = less stable)” value [1] was 1.9 kcal/mol, the “heat capacity change of unfolding” value [1] was 0.9 kcal/mol/K and the Tm [2] was 55.8 °C. For the same variant, the “change of melting temperature, mutant” value [2] was -8.5 °C and the “unfolding enthalpy (calorimetric)” value [2] was 70.1 kcal/mol.

In the case of V280T, the “ddG of mutation (higher = less stable)” value [1] is reported as 1 kcal/mol, the “heat capacity change of unfolding” value [1] is reported as 0.9 kcal/mol/K and the Tm [2] is reported as 60 °C. The “change of melting temperature, mutant” value [2] was -4.3 °C and the “unfolding enthalpy (calorimetric)” value [2] was 75.1 kcal/mol.
